Drawing on paper PMC4894380, this text covers binding for one sequence.

This data set has as its target T1, MqsA (Escherichia coli (strain of the protein not stated)) (UniProt Q46864).
T1 sequence: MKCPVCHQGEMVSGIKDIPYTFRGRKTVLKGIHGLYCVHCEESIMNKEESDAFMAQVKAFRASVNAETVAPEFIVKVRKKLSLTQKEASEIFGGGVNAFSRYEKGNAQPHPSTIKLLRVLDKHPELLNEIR
Briefly: EMSA. The following applies: 10 mM Tris-HCl pH 7.5, 50 mM KCl, 1 mM DTT, 1 ug poly(dI.dC), 30-50 fmol labeled probe, ambient temperature, 1 h; 6% gel, 0.5x TBE. (A gel shift assay detects complexes by their altered migration in electrophoresis.)

As to “CGTGTATGTGGTGTGCGTTTTTCCATAACCCCCGCCTCCCTGTTACTTTAGTTATAACCTAAAAGGTTAATTACAGCAATGAAAAAGCACCTAAAAGGTTAGTTAGATGTACGGAGATAGTGACCACACAAAACGTATTCTTTAAGGAAAGTGATTGACCATATAAGAAAGTGGCGCATTAGTAGCGCCAGTTTGAAGCAGGAATTTATAAGGGAAGCTGGAGTCAGGCATCAC (double strand) [p-mqsRA (234 bp)]”, the binding entry is recorded as “binds”.
